The text below walks through data of article PMC7397750, “Angiopoietin-like protein 8 differentially regulates ANGPTL3 and ANGPTL4 during postprandial partitioning of fatty acids[S]” (Journal of Lipid Research, 2020).

Where “and” joins values, the source holds several entries; their conditions need not be identical. Equal entries are not always repeated.

B1: LPL (lipoprotein lipase), avidin-tagged (enzyme)
chain: DRITGGKDFRDIESKFALRTPEDTAEDTCHLIPGVTESVANCHFNHSSKTFVVIHGWTVTGMYESWVPKLVAALYKREPDSNVIVVDWLSRAQQHYPVSAGYTKLVGQDVAKFMNWMADEFNYPLGNVHLLGYSLGAHAAGIAGSLTNKKVNRITGLDPAGPNFEYAEAPSRLSPDDADFVDVLHTFTRGSPGRSIGIQKPVGHVDIYPNGGTFQPGCNIGEALRVIAERGLGDVDQLVKCSHERSVHLFIDSLLNEENPSKAYRCNSKEAFEKGLCLSCRKNRCNNMGYEINKVRAKRSSKMYLKTRSQMPYKVFHYQVKIHFSGTESNTYTNQAFEISLYGTVAESENIPFTLPEVSTNKTYSFLLYTEVDIGELLMLKLKWISDSYFSWSNWWSSPGFDIGKIRVKAGETQKKVIFCSREKMSYLQKGKSPVIFVKCHDKSLNRKSG
modifications: biotin/Avi-type tag ('avidin-tagged') for capture on streptavidin, tag omitted; N-glycosylated. The species is not printed. The BLI methods give LPL as from Sigma, whose usual LPL is purified from …
B5: recombinant ANGPTL4/8 complex (complex, human)
chain 1: GPVQSKSPRFASWDEMNVLAHGLLQLGQGLREHAERTRSQLSALERRLSACGSACQGTEGSTDLPLAPESRVDPEVLHSLQTQLKAQNSRIQQLFHKVAQQQRHLEKQHLRIQHLQSQFGLLDHKHLDHEVAKPARRKRLPEMAQPVDPAHNVSRLHRLPRDCQELFQVGERQSGLFEIQPQGSPPFLVNCKMTSDGGWTVIQRRHDGSVDFNRPWEAYKAGFGDPHGEFWLGLEKVHSITGDRNSRLAVQLRDWDGNAELLQFSVHLGGEDTAYSLQLTAPVAGQLGATTVPPSGLSVPFSTWDQDHDLRRDKNCAKSLSGGWWFGTCSHSNLNGQYFRSIPQQRQKLKKGIFWKTWRGRYYPLQATTMLIQPMAAEAAS
chain 2: APMGGPELAQHEELTLLFHGTLQLGQALNGVYRTTEGRLTKARNSLGLYGRTIELLGQEVSRGRDAAQELRASLLETQMEEDILQLQAEATAEVLGEVAQAQKVLRDSVQRLEVQLRSAWLGPAYREFEVLKAHADKQSHILWALTGHVQRQRREMVAQQHRLRQIQERLHTAALPA

The target in experiment [1] is ANGPTL8 (angiopoietin-like protein 8), endogenous in human serum (human (endogenous in serum)) (UniProt Q6UXH0). In words: affinity purification with mass spectrometry; immunoprecipitation of endogenous complexes from human serum with biotinylated anti-ANGPTL antibodies and streptavidin magnetic beads; trypsin/Lys-C digest; LC-MRM with spiked stable-isotope-labelled peptides; molar ratios from two peptides for each protein.

Experiment [2] deals with B5. In words: BLI; Octet RED96e; avidin-tagged LPL immobilised on streptavidin biosensors; 50 nM ANGPTL protein or complex; dissociation in buffer-only wells. The note with it: both partners purified. On the technique in general: Biolayer interferometry detects binding as a change in optical thickness at a sensor tip.
The target in experiment [3] is B1. Nature of the experiment: cell-based or functional assay.
The target of experiment [4] is T1, ANGPTL8 (angiopoietin-like protein 8), endogenous in human serum (human (endogenous in serum), UniProt Q6UXH0 22-198).
T1 construct: ANGPTL8, human, circulating protein of donor serum; also called ANGPLT8; source: endogenous, human serum
T1 sequence (looked up): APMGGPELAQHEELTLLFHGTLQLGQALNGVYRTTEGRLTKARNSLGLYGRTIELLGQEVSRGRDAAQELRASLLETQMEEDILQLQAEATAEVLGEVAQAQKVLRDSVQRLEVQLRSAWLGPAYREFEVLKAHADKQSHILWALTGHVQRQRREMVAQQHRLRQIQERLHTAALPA
In words: affinity purification with mass spectrometry; immunoprecipitation of endogenous complexes from human serum with biotinylated anti-ANGPTL antibodies and streptavidin magnetic beads; trypsin/Lys-C digest; LC-MRM with spiked stable-isotope-labelled peptides; molar ratios from two peptides for each protein. Conditions: partners not purified.

In the case of “ANGPTL3 (angiopoietin-like protein 3), endogenous in human serum (natural protein)”, the stoichiometry N (ANGPTL3 per ANGPTL8 (protein ratio)) in experiment [1] was 3.4 and 3.5.

Consider B1, for which, in experiment [2], the Kd was < 0.001 nM, the koff is < 1e-07 s⁻¹ and the on-rate (kon) is 48000 M⁻¹ s⁻¹.

B2: C-terminal HIS-tagged ANGPTL3 (natural protein, human, UniProt Q9Y5C1 17-460, looked up)
chain: SRIDQDNSSFDSLSPEPKSRFAMLDDVKILANGLLQLGHGLKDFVHKTKGQINDIFQKLNIFDQSFYDLSLQTSEIKEEEKELRRTTYKLQVKNEEVKNMSLELNSKLESLLEEKILLQQKVKYLEEQLTNLIQNQPETPEHPEVTSLKTFVEKQDNSIKDLLQTVEDQYKQLNQQHSQIKEIENQLRRTSIQEPTEISLSSKPRAPRTTPFLQLNEIRNVKHDGIPAECTTIYNRGEHTSGMYAIRPSNSQVFHVYCDVISGSPWTLIQHRIDGSQNFNETWENYKYGFGRLDGEFWLGLEKIYSIVKQSNYVLRIELEDWKDNKHYIEYSFYLGNHETNYTLHLVAITGNVPNAIPENKDLVFSTWDHKAKGHFNCPEGYSGGWWWHDECGENNLNGKYNKPRAKSKPERRRGLSWKSQNGRLYSIKSTKMLIHPTDSESFE
notes: source: HEK293, transient, purified (Ni-NTA, SEC)
On to B2, for which the “IC50 of inhibition of LPL enzymatic activity; human LPL-stable expression cells, BODIPY-TG (EnzChek) substrate” value (shortened to “IC50 of inhibition … (EnzChek) substrate”) in experiment [3] came out at 26 nM.

B3: recombinant ANGPTL3/8 complex (complex, human)
chain 1: SRIDQDNSSFDSLSPEPKSRFAMLDDVKILANGLLQLGHGLKDFVHKTKGQINDIFQKLNIFDQSFYDLSLQTSEIKEEEKELRRTTYKLQVKNEEVKNMSLELNSKLESLLEEKILLQQKVKYLEEQLTNLIQNQPETPEHPEVTSLKTFVEKQDNSIKDLLQTVEDQYKQLNQQHSQIKEIENQLRRTSIQEPTEISLSSKPRAPRTTPFLQLNEIRNVKHDGIPAECTTIYNRGEHTSGMYAIRPSNSQVFHVYCDVISGSPWTLIQHRIDGSQNFNETWENYKYGFGRLDGEFWLGLEKIYSIVKQSNYVLRIELEDWKDNKHYIEYSFYLGNHETNYTLHLVAITGNVPNAIPENKDLVFSTWDHKAKGHFNCPEGYSGGWWWHDECGENNLNGKYNKPRAKSKPERRRGLSWKSQNGRLYSIKSTKMLIHPTDSESFE
chain 2: APMGGPELAQHEELTLLFHGTLQLGQALNGVYRTTEGRLTKARNSLGLYGRTIELLGQEVSRGRDAAQELRASLLETQMEEDILQLQAEATAEVLGEVAQAQKVLRDSVQRLEVQLRSAWLGPAYREFEVLKAHADKQSHILWALTGHVQRQRREMVAQQHRLRQIQERLHTAALPA
Consider B3, for which, in experiment [3], the “IC50 of inhibition … (EnzChek) substrate” value is 0.14 nM.

B4: C-terminal HIS-tagged ANGPTL4 (natural protein, human, UniProt Q9BY76-1 26-406, looked up)
chain: GPVQSKSPRFASWDEMNVLAHGLLQLGQGLREHAERTRSQLSALERRLSACGSACQGTEGSTDLPLAPESRVDPEVLHSLQTQLKAQNSRIQQLFHKVAQQQRHLEKQHLRIQHLQSQFGLLDHKHLDHEVAKPARRKRLPEMAQPVDPAHNVSRLHRLPRDCQELFQVGERQSGLFEIQPQGSPPFLVNCKMTSDGGWTVIQRRHDGSVDFNRPWEAYKAGFGDPHGEFWLGLEKVHSITGDRNSRLAVQLRDWDGNAELLQFSVHLGGEDTAYSLQLTAPVAGQLGATTVPPSGLSVPFSTWDQDHDLRRDKNCAKSLSGGWWFGTCSHSNLNGQYFRSIPQQRQKLKKGIFWKTWRGRYYPLQATTMLIQPMAAEAAS
B4: in experiment [3], the “IC50 of inhibition … (EnzChek) substrate” value was found to be 0.29 nM and the “IC50 of inhibition of LPL enzymatic activity; human LPL-stable expression cells, VLDL substrate, NEFA released” value amounted to 0.44 nM.

As to B5, in experiment [3], the “IC50 of inhibition … (EnzChek) substrate” value was determined as 37 nM and the “IC50 of inhibition of LPL enzymatic activity; human LPL-stable expression cells, VLDL substrate, NEFA released” value was found to be 105 nM.

B6: ANGPTL4 (angiopoietin-like protein 4), endogenous in human serum, N-terminally intact (natural protein, human (endogenous in serum), UniProt Q9BY76-1 26-406, looked up)
chain: GPVQSKSPRFASWDEMNVLAHGLLQLGQGLREHAERTRSQLSALERRLSACGSACQGTEGSTDLPLAPESRVDPEVLHSLQTQLKAQNSRIQQLFHKVAQQQRHLEKQHLRIQHLQSQFGLLDHKHLDHEVAKPARRKRLPEMAQPVDPAHNVSRLHRLPRDCQELFQVGERQSGLFEIQPQGSPPFLVNCKMTSDGGWTVIQRRHDGSVDFNRPWEAYKAGFGDPHGEFWLGLEKVHSITGDRNSRLAVQLRDWDGNAELLQFSVHLGGEDTAYSLQLTAPVAGQLGATTVPPSGLSVPFSTWDQDHDLRRDKNCAKSLSGGWWFGTCSHSNLNGQYFRSIPQQRQKLKKGIFWKTWRGRYYPLQATTMLIQPMAAEAAS
notes: ANGPTL4, human, circulating protein of donor serum precipitated or captured with an N-terminal ANGPTL4 antibody; Full-length or N-terminal fragment; also called active ANGPTL4; source: endogenous, human serum
Turning to B6, the “stoichiometry N” value in experiment [4] is 0.8 ANGPTL4 per ANGPTL8 (protein ratio).

The Kd is a measure of binding affinity in units of concentration. Usually koff stands for the first-order rate constant of dissociation. The kon is the second-order rate constant of association. The stoichiometry N is a count of units in the complex or per binding partner.
